# Results reported in the DeepSol protein solubility set.
# Assay: soluble on expression in E. coli; label from the status in PepcDB or PDB records
row,Sequence,soluble on expression in E. coli
1,MARMKARSAKGKRVAKDTWKSKVWYDIYTPQSFGGDVIGQTPANDPANLIGRISEISLRDLTNEHSKHMTRMYFKVDGVSGNNATSQFVGHDTTREYLKSQVRRRRSKINAIVEVRTKDGFKVRVKALVLTAVRARDHHKTEIRVRMEQIIKEMAKETPFAEFVHAMLMGGLGSKIYGDCKKMFPLKRVEIFKSEVIEFGKAAEAPVEEAAAEEVVEEAAAETQELEHHHHHH,soluble
2,MGSDKIHHHHHHMGEEIAISLKNVSKCFKRYSRPVDRLKEVLLPGKSRTDEFWALRDINIEIPKGQTVGIVGRNGSGKSTLLQIIVGTLTPSSGDVRVVGRVSALLELGSGFNPEFTGRQNVFFNGQLLGLSQKQIEDRFDDIVAFADIGDFIEQPVKTYSSGMYVRLAFSVAVNVDPEILIVDEALAVGDVVFQHRCMRRMRAMMDSGVTTLFVSHDSGAIKTLCNSAVMIHDGKIHTTGLPNTVIIEYLKLVTELELGLAQDITVNSQQQVNPVVDNAIQASDSPNFDIESPSSNFSKATRRGSGKARIESVKILNQLGHYAGESPIFAFNEEVTLIVNLKVYYTIKSCIVGFHVCDKNGNEVIGSNTLEENIKIDKLESGEEIEIKFKFNLPLRPSSYSLTVAGAESYESLSFDWIDNIMVFQILPPDTGKLIHALVHQPMVVKVNKKVLPTVVTPA,not soluble
3,MLWWEEVEDSYEREDVQKKTFTKWVNAQFSKFGKQHIENLFSDLQDGRRLLDLLEGLTGQKLPKEKGSTRVHALNNVNKALRVLQNNNVDLVNIGSTDIVDGNHKLTLGLIWNIILHWQVKNVMKNIMAGLQQTNSEKILLSWVRQSTRNYPQVNVINFTTSWSDGLALNALIHSHRPDLFDWNSVVSQQSATQRLEHAFNIARYQLGIEKLLDPEDVDTTYPDKKSILMYITSLFQVLPQQVSIE,soluble
4,MSAAEEVDGLGVVRPHYGSVLDNERLTAEEMDERRRQNVAYEYLCHLEEAKRWMEACLGEDLPPTTELEEGLRNGVYLAKLGNFFSPKVVSLKKIYDREQTRYKATGLHFRHTDNVIQWLNAMDEIGLPKIFYPETTDIYDRKNMPRCIYCIHALSLYLFKLGLAPQIQDLYGKVDFTEEEINNMKIELEKYGIQMPAFSKIGGILANELSVDEAALHAAVIAINEAIDRRVAADTFTALKNPNAMLVNLEEGLAPTYQDVLYQAKQDKMTNAKNRTENSDRERDVYEELLTQAEIQGNVNKVNTSSALADISLALEQGCAVTLLKALQSLALGLRGLQTQNSDWYMKQLQSDLQQKRQSGQTDPLQKEEVQAGVDAANSAAQQYQRRKRPLAPGHRSVQGRAVVALCH,soluble
5,MGSDKIHHHHHHMTLGIAFVGSGFSAKFHLRGLVGVRNVEVKGVYSRNLNSSKEFAMLSEQLGLGKPKVYSDISKMLSDKEINAVWLTVPNDVHLEYTKLIAEEVSQGRSNIHGITIEKPLARNVKEAKEMIRLVEKAGLLHGYLENQIFMPSVVRAREAIWEIGSRNSGRPYLARAAEEHSGPHNSWFWRPTISGGGALIDMTCHSLEATRFLLTDPAKTKSSLKPKTVYAETKTLKWNKKEYAQYLKEKYNVDFLKEPAEDYALTIVTYEDDLGNSVLAETRTSWNYVGPGLRLSVEVLGPEYSVNINTLQSELSVFFSRNIKLPQSEAFVEKQNADQGLMPIILDEAVVYGYQGEDRHMVESFISRKMPFENWYDGLLIVQLMMHAYLSAENGRKISFDPQKVEDFIPKVARGLYSAF,not soluble
6,MSLDDESYEEEHKRMVLKIHQEFWDLPTNYQEKPLVFGSQAKNRYKTILPNEHSRVILEPERSPAAGGEPYINANYIKGPDYANNSYIATQGPLPNTIYEFWLMVYQNVVRTATVAGRSCASAGLEQKIVMLTNFVENGRQKCAIYFPQTADEWVAFGSGADIDVGEMLREKDTITASIAAAEQQPEGQEAVGGVCQPVTVRVPCASCFFLVHNVAVEQRNGYTVRTLNVIYGAKVSDADAPDGDGSRALFELTQFRAHHYWFPDWPDHRSPKDINVLLDLSLDVLGSNVVDTPRPESSNSLKGNQPGTPGLEEVMGAAQLAALSSSCTPTVLPIVHSSAGIGRTGCLIAILNGLRQLRLSVMAHQRKQQQLKQSQAQTGEAGQGELHGSEGRRKSTVQMDGATLLAPNAAVGRGGQREGSAVVRESGQVDILGIVCNLRLQRGGMVQNSEQYELIHRALCLYLEKLTQDGQEGHHHHHH,soluble
7,MKQTVAAYIAKTLESAGVKRIWGVTGDSLNGLSDSLNRMGTIEWMSTRHEEVAAFAAGAEAQLSGELAVCAGSCGPGNLHLINGLFDCHRNHVPVLAIAAHIPSSEIGSGYFQETHPQELFRECSHYCELVSSPEQIPQVLAIAMRKAVLNRGVSVVVLPGDVALKPAPEGATMHWYHAPQPVVTPEEEELRKLAQLLRYSSNIALMCGSGCAGAHKELVEFAGKIKAPIVHALRGKEHVEYDNPYDVGMTGLIGFSSGFHTMMNADTLVLLGTQFPYRAFYPTDAKIIQIDINPASIGAHSKVDMALVGDIKSTLRALLPLVEEKADRKFLDKALEDYRDARKGLDDLAKPSEKAIHPQYLAQQISHFAADDAIFTCDVGTPTVWAARYLKMNGKRRLLGSFNHGSMANAMPQALGAQATEPERQVVAMCGDGGFSMLMGDFLSVVQMKLPVKIVVFNNSVLGFVAMEMKAGGYLTDGTELHDTNFARIAEACGITGIRVEKASEVDEALQRAFSIDGPVLVDVVVAKEELAIPPQIKLEQAKGFSLYMLRAIISGRGDEVIELAKTNWLR,soluble
8,ANCSIMIDEIIHHLKRPPNPLLDPNNLNSEDMDILMERNLRTPNLLAFVRAVKHLENASAIESILKNLLPCLPLATAAPTRHPIHIKDGDWNEFRRKLTFYLKTLENAQAQQ,soluble
9,MLPSAPAPLAHFLLFLHLIHSARPEDGVPIETIHAPMFEDVFDVRIHEGADKGSRLTMSQDLQKSTEPLGHCFGQLETDVDWIEWKSSRSAFYTTAQMPISATKNSNNLVGSLHLLCAGNQMHTFPFRVHITHRNHHPPTFSKNSFKFHVPTTLPIGSVITTLEVKDQDPVIYNSERRLAFTKDEPLVDILQDGTLKLKSDLSILTPYTPQRMQILAIDYGSPQLFTIANITLIPVTVSMVRELHVNVATEEYQIFEWEHPQYGTVDKYRLGIRRDDQVVYEEELEAAKTLALTKIMLSNSMNVSFQVTAIDENGETSSEWTQIGPIDRDVICKGECSRGGTPLCYVGAFNRVEQFIDARGAHCLCYPGFMGVSCETIGSMWTLTTLDVFVDLIRAMANKLNSIECSQIAI,not soluble
10,LDFGALPPEINSGRMYCGPGSGPMLAAAAAWDGVAVELGLAATGYASVIAELTGAPWVGAASLSMVAAATPYVAWLSQAAARAEQAGMQAAAAAAAYEAAFVMTVPPPVITANRVLVMTLIATNFFGQNSAAIAVAEAQYAEMWAQDAVAMYGYAAASASASRLIPFAAPPKTTNSAGVVAQVAAVAAMPGLLQRLSSAASVSWSNPNDWWLVRLLGSITPTERTTIVRLLGQSYFATGMAQFFASIAQQLTFGPGGTTAGSGGAWYPTPQFAGLGASRAVSASLARANKIGALSVPPSWVKTTALTESPVAHAVSANPTVGSSHGPHGLLRGLPLGSRITRRSGAFAHRYGFRHSVVARPPSAG,not soluble
11,MELKNSISDYTETEFKKIIEDIINCEGDEKKQDDNLEHFISVTEHPSGSDLIYYPEGNNDGSPEAVIKEIKEWRAANGKSGFKQG,soluble
12,MSLVHQLLAQMENGYMKIIKENLVGIYLHGSYAFGTYCHSVSDLDVLIVVYEKLTIDEKKQLLDYTINILDKWAPKKGIEFHVLQLKDTINLSYPIPFDLHFSPIHRSRYLTNKNKYIEDMMGYDEDLVAHLMITKLYGKVLVGKPIDSVFGWIDQKKYFESIVADVKEAKKEIVQQPMYVILNMCRVMAFKQENKILSKRAGGEWGLVHFPTNHHSLIQLALKEYRGETVLLEQYNDSELNDFADIMLSLLFKEGHHHHHH,not soluble
13,MGSDKIHHHHHHMERNEMLKKVEAAMPNARFKHTLGVEKAAVELAEHYHMDVEKARITALLHDYAKYYDDDKARKIIEDEGYDPRLLSFHRSLWHAPVGAYLAEKEFGITDTEILEAIRLHTTGSATMSDFDKLIYLADYTEQGRTFPGVYKARRLALKSLNEAMLFALSNTITHLVKKQQLVFPDTLDAYNYFVNLNLEGDY,not soluble
14,MQDEFDLFRTETKGIKPIKQDTFVAPRQKRDQKKIELKELRAKEDTLFYFSDEYEPLLNDNDGVVKYLRDGEDSHLLKQLRRGDFSPELFLDLHGLTREQAKQELAALLLACENEHVDCASIMTGYGTFTLKKQIPRWLVQHPKVRALHQAPREWGGEAAILILVDL,soluble
15,MKPKVLLAGGTGYIGKYLSEVIENDAELFTISKYPDNKKTDDVEMTWIQCDIFHYEQVVAAMNQIDIAVFFIDPTKNSAKITQSSARDLTLIAADNFGRAAAINQVKKVIYIPGSRYDNETIERLGAYGTPVETTNLVFKRSLVNVELQVSKYDDVRSTMKVVLPKGWTLKNVVNHFIAWMGYTKGTFVKTEKSHDQFKIYIKNKVRPLAVFKIEETADGIITLILLSGSLVKKYTVNQGKLEFRLIKESAVVYIHLYDYIPRLFWPIYYFIQAPMQKMMIHGFEVDCRIKDFQSRLKSGENMKYTK,not soluble
16,MGSDKIHHHHHHMQKLTLKEVQAKAVEILVYIDNICRSNNLHYTLFYGTLIGVERHKGFIPWDDDIDIVMPRPDYELLIKILKNDSNYQLLSFETRKHFRYPFAKLVDPNTVAHSKQYFGGEDKDLGVFVDIFPIDGIPDTQKERNELRKITEQYRLNLMDTLGLSYARSFHLSKALIKLITRYPNHFKVKKVGNNQYWRDLYQTEAKKTPFGATKHCGYLEWIHIDWGVFPNEWFLEYEDVEFEGHKFMAIKNRKQFLTLRYGDYMEMPPVEERITHHPYDFYQK,not soluble
17,MAIDPAAAYASAIRTPGLLPNAKLVVDHFHVTTLANDALTAVRRRVTWAFHDRRGRKIDPQWANRRRLLTARERLSDKSFAKMRNRINAVDPRAQILSAWIAKEELRTLLSTVRTGGDPHLARHHLHRFLPGASTRRSPNCSPWPPPLTSHPRSTPSWSPASPTRASVVGEVAEMLGDIDGQCVQVEVPVPERGPAGCGGLDGLGRAGVSATPRVCAAMTAVNVAGRCAGQQADVGPTPQHRCRGR,soluble
18,MGSDKIHHHHHHMDSLTELFCLIDDFCCQFEPALERRLLETGVKKRKRCSGLSLSELMTLTVLFHQLRFRQFKSFYLVYVCRHLQAEFPKLPSYQRCVELLPRCVAPLAALFEMLKGQCDGISIADATAIAVCDNRRIARHRVFADSARRGKTSMGWFYGFKLHAIINSRGELIRLRLTAGNVDDRKPMPDLCQGLFGQLFADKGYLAQWLTEALDQQNLQLITPLRKNMRPVPRTRFEKVILRRRSLIETVFDELKNLCQIEHTRHRSLFNFIVNLMAGIVAYCLSDNKPTLNLTRVNSLAKA,not soluble
19,MVALFPSSPAEDLLAEGPCVMTGKGLHQLLLDRWGYSYGLQLRRTQGKIFLQIMWKYLEQASFPMDEGEYFSHLNEVASYLVALGAAEAIAQTIRETREKPRLGKAVSIPIELGARASEWFPDLEHHHHHH,soluble
20,MGSDKIHHHHHHMNYKYYTIVILGLLAFSACEKDDIDIPATDNEVNQWIEQTMRENYLWYSELPDKSSLDFSLDPESFFKGLLSDKDGKELSDGHHYFSQLEKATVTKSIYDANNSYGFDFATSNLKDGGSTYKIAIVLYVLKDSPAEEAGLKRGDWILGVNGSLGSIQDYDVLRSGGSVSLQLGKETGNTKGFVSTRRVTLNASRTVEDSPFLKDSVYTYGNKRIGYLMYNHFASGPDEYDYSDTSYNLYLQQLFEKFKSRNVNEFVLDLRYNGGGLVNCAQLLASLLVRENVLGEPLCIMEYNDKNSNKNETLPLLKTTEVMAGNLNLQRLFVLTGSTTASASELIINSLRSYLDVRVIGKQTFGKTVGMTIYNESKKYGWILSPVTFHIYNKDREADYEDGFHPDVAIDEFKSDLAEFGDLKDPLLGQAIYEITGQSPLLRSATPRGNREIQYNPPLSYKDNLLLIPKD,not soluble
